Molecular target: recombinant myostatin
Assay: cell-based or functional assay

macrophage migration towards ZAMS medium (chemotaxis assay, FIG. 9): 20 fold
Substance: myostatin antagonist 350 (amino acids 267-350 of bovine myostatin) (from UniProt O18836 267-350) (peptide)

From patent publication US20070190056A1
